Measurements reported in paper PMC10419500, “FvWRKY50 is an important gene that regulates both vegetative growth and reproductive growth in strawberry”.

B1: proFT3 probe W982 (dsDNA)
DNA 1: GATCCATTTCCATTGACCAGACTCACCTCAC
DNA 2: GTGAGGTGAGTCTGGTCAATGGAAATGGATC
B2: proCHI probe W1610 (dsDNA)
DNA 1: CTCATTTTACCAAGTTGACCCCTTCATTTG
DNA 2: CAAATGAAGGGGTCAACTTGGTAAAATGAG
B3: proDFR probe W290 (dsDNA)
DNA 1: CTTATATCCACATCTTGACCGTTCAGTTTATAG
DNA 2: CTATAAACTGAACGGTCAAGATGTGGATATAAG

Biological target: FvWRKY50-His (Fragaria vesca? (diploid strawberry; …, UniProt A0A2H4G369 6-213)
Assay: EMSA; 200-fold unlabeled probe used as competitor; EMSA buffer, salt, pH and temperature not given in the material
Settings: protein: recombinant, tags: His (pET30a; also written His-FvWRKY50), blunt

Sequence of FvWRKY50-His (Fragaria vesca? (A0A2H4G369 entry or part of it): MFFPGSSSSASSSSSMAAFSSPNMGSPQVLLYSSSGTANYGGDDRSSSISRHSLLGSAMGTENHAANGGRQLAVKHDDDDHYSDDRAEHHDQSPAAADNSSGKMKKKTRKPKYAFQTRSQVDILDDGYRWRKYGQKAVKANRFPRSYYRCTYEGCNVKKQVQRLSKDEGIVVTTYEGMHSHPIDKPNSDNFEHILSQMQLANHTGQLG

| Binder | binding result (label: biotin) | binding result |
| --- | --- | --- |
| B1 | binds |  |
| B2 |  | binds |
| B3 |  | binds |
